Measured values from patent US20100069815A1 (ASAHI KASEI, published 2010).

Molecular target: T1, CD4 on CD4 positive cells in human peripheral blood (human, UniProt P01730 26-458)
T1 construct: whole, on cells; also called CD4 molecules
Assay: cell adsorption from human whole blood on covalently immobilized binder (GMA grafted nonwoven fabric column); flow cytometry; mean ± SD of 3
Procedure: Immediately before the initiation of experiment, the PBS(−) solution was drained off by flowing air through the column. 5.0 ml of healthy human fresh blood containing ACD-A ([…] Laboratories) (blood:ACD-A=6.7:1) was fed from the inlet of the cell adsorber at a flow rate of 1.0 ml/min with a syringe pump. After discarding the first five drops, the treated blood was collected from the outlet of the column.
The CD4 positive cell removal rate at that time was calculated based on the change in the number of leukocytes measured by Coulter counter, and the change in the proportion of CD4 positive cells in the recovered cells measured by flow cytometry with use of a flow cytometer (FACS Calibur: Becton, Dickinson and Company). The cells were stained by the following manner. 100 μl of the collected blood was added with 10 μl of anti-CD4-PE solution (clone SK3, Becton, Dickinson and Company), 10 μl of anti-CD8-FITC solution (clone RPA-T8, Becton, Dickinson and Company), and 10 μl of anti-CD45-PerCP solution (Becton, Dickinson and Company). The resultant mixture was allowed to be stained at room temperature for 30 minutes, and then was added with 1 ml of FACS Lysing solution (Becton, Dickinson and Company) to effect hemolysis. CD45 positive cells were gated as leukocytes, and the proportion of CD4 positive cells therein was assayed.

- CD4 positive cell removal rate (%): 29.6%
B1: Leu3a scFv-Normal (scFv)
scFv: MADIVLTQSPASLAVSLGQRATISCKASQSVDYDGDSYMNWYQQKPGQPPKLLIYAASNLESGIPARFTGSGSGTDFTLNIHPVEEEDTATYYCQQSYEDPPTFAGGTNLEIKGGGGSGGGGSGGGGSMVHLQESEPELVKPGASVKMSCKASGYTFTDYVINWVKQRTGQGLEWIGETYTGSGSSYYNEKFKDKATLTVDKASNIAYMQLSSLTSEDSAVYFCARRGKGTGFAFWGQGTLVTVSAAAADYKDDDDKGSSEQKLISEEDLGSRSTHHHHHHGSTK
notes: Covalently immobilized on GMA grafted nonwoven fabric in the assay
